From patent US20100120688A1 (University of Pennsylvania, published 2010)
Bridge positions count the residues as written; N and C are the ends. Ends that are not written are not given here.

B1: B2-S22-APE (derived from erbB2) (peptide)
peptide: YCPIWKFPDEECY
modifications: disulfide 2-12 (inferred)
B2: B4-S22-AFD (derived from erbB4) (peptide)
peptide: YCFIFKYADPDCY
modifications: disulfide 2-12 (inferred)
B3: B2-S22-AFA (derived from erbB2) (peptide)
peptide: YCFPDEEGACY
modifications: disulfide 2-10 (inferred)
B4: B1-S22-ALG (derived from erbB1) (peptide)
peptide: YCLVWKYADAGCY
modifications: disulfide 2-12 (inferred)
B5: CD4-G (CD4 receptor-derived cyclic peptide, negative control) (peptide)
peptide: FCYIGEVEDQCY
modifications: disulfide 2-11 (inferred)
notes: also called control peptide
B6: B3-S22-APQ (derived from erbB3) (peptide)
peptide: YCPIYKYPDVQCY
modifications: disulfide 2-12 (inferred)

How the values were obtained:
[1] = molecular target: T1, ErbB1 extracellular domain (recombinant, soluble) (UniProt P00533 25-645, limits assumed); assay: SPR (Biacore), global fit to the 1:1 Langmuir model; receptor taken as erbB1 by the KD of 0.21 µM
T1 construct: extracellular domain; also called erbB1 ectodomain; EGFr

[2] = molecular target: T2, ErbB2 extracellular domain (recombinant) (UniProt P04626 23-652, limits assumed); assay: SPR; peptide 10 µM preinjected over immobilized ErbB2, then ErbB3 (300 nM) with HRGβ1 (5 µM); competitor: erbB3-HRGβ1
T2 construct: extracellular domain; also called whole ectodomain of erbB2; full-size erbB2 ectodomain

[3] = molecular target: T1, ErbB1 extracellular domain …; assay: SPR; peptide 10 µM preinjected over immobilized ErbB1, then ErbB3 (300 nM) with HRGβ1 (5 µM); competitor: erbB3-HRGβ1
[4] = molecular target: T3, erbB2-SbdIV (recombinantly expressed subdomain IV of erbB2, GST fusion protein) (UniProt P04626 511-652); assay: SPR (Biacore), peptide over immobilized erbB2-SbdIV
T3 construct: domain: subdomain IV; Expressed in E. coli BL-21 (DE3) and eluted from glutathione sepharose; no removal of GST is told; also called erbB2-Sbd W; not shown: glutathione S-transferase of the pGEX-5X-3 vector (N-terminal fusion partner)

[5] = molecular target: TNF receptor (immobilized, control); assay: SPR (Biacore 3000), peptide injected over immobilized TNF receptor (control)
[6] = molecular target: T4, ErbB3 extracellular domain (recombinant, soluble) (UniProt P21860 20-643, limits assumed); assay: SPR (Biacore 3000), peptide injected over immobilized receptor extracellular domain
T4 construct: extracellular domain; also called ectodomain of erbB3
T4 sequence (P21860 20-643 limits assumed): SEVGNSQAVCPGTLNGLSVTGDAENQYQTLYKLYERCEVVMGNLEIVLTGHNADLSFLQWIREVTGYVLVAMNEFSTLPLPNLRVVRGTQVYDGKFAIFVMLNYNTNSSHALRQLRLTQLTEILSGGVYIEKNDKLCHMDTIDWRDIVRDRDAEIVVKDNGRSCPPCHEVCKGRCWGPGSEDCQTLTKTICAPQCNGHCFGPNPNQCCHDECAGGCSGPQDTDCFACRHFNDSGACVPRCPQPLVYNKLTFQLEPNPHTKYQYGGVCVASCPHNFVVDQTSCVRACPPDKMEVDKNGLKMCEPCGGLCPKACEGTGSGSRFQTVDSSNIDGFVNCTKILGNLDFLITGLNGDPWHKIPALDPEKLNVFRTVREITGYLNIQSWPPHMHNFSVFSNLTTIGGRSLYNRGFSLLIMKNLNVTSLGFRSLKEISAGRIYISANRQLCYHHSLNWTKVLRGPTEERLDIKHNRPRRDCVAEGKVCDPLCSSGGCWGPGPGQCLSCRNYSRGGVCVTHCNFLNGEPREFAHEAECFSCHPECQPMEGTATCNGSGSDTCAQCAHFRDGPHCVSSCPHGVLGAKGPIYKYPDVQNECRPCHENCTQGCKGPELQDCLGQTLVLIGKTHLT

[7] = molecular target: T1, ErbB1 extracellular domain …; assay: as above
[8] = molecular target: T2, ErbB2 extracellular domain (recombinant); assay: as above
[9] = molecular target: T4, ErbB3 extracellular domain …; assay: SPR; peptide 10 µM preinjected over immobilized ErbB3, then ErbB3 (300 nM) with HRGβ1 (5 µM); competitor: erbB3-HRGβ1
[10] = molecular target: T5, erbB2 receptor, native full-length, on transfected 32D cells (32D-E2/E4 and 32D-E2/E3) (UniProt P04626 23-1255, limits assumed); assay: inhibition of heregulin-induced erbB2-erbB4 dimerization on 32D-E2/E4 cells, chemical cross-linking and immunoblot, dose dependence; 32D-E2/E4 cells; heregulin-induced erbB2-erbB4 heteromerization
T5 construct: whole, on cells

[11] = molecular target: TNF receptor (immobilized, control); assay: SPR (Biacore 3000), control peptide injected over immobilized TNF receptor (control)
[12] = molecular target: T4, ErbB3 extracellular domain …; assay: SPR (Biacore 3000), control peptide injected over immobilized receptor extracellular domain
[13] = molecular target: T1, ErbB1 extracellular domain …; assay: as above
[14] = molecular target: T2, ErbB2 extracellular domain (recombinant); assay: as above

Binder	koff [1] [s⁻¹]	kon [1] [M⁻¹ s⁻¹]	Percent Inhibition [2] [%]	Percent Inhibition [3] [%]	Kd [4] [µM]	koff [4] [s⁻¹]	kon [4] [M⁻¹ s⁻¹]	Kd [5] [µM]	Kd [6] [µM]	Kd [7] [µM]	Kd [8] [µM]	Percent Inhibition [9] [%]	IC50 [10] [µM]	Kd [11] [µM]	Kd [12] [µM]	Kd [13] [µM]	Kd [14] [µM]
B1	0.000685	3240	51.1	80.3	1.89	0.00307	1620	> 1000	1.4	0.21	1.53	42.7	–	–	–	–	–
B2	–	–	54.2	60.3	–	–	–	> 1000	0.394	0.583	0.639	72.8	–	–	–	–	–
B3	–	–	82.5	78.4	–	–	–	> 1000	0.429	0.407	0.302	61.7	0.8	–	–	–	–
B4	–	–	71.4	65.2	–	–	–	> 1000	0.288	0.449	0.371	75.1	–	–	–	–	–
B5	–	–	–	–	–	–	–	–	–	–	–	–	–	> 1000	> 1000	> 1000	> 1000
B6	–	–	58.1	69	–	–	–	> 1000	1.07	0.472	0.549	32.4	–	–	–	–	–
